In PMC9738581, “Dissection of Functional Domains of Orc1-2, the Archaeal Global DNA Damage-Responsive Regulator”:
Residue numbers refer to the chain shown, from its start.

T1: Orc1-2 ΔC (Saccharolobus islandicus REY15A, UniProt F0NF18 1-298)
T1 sequence: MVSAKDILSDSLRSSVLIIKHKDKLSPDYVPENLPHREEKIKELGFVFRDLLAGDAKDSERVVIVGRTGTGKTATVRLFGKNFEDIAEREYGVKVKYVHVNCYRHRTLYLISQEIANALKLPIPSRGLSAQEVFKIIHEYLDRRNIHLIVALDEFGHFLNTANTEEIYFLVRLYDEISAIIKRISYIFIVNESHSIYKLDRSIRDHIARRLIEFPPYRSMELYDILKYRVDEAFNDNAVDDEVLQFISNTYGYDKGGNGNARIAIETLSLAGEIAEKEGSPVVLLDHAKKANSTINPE

T2: Orc1-2 WT (Saccharolobus islandicus REY15A, UniProt F0NF18 1-413)
T2 sequence: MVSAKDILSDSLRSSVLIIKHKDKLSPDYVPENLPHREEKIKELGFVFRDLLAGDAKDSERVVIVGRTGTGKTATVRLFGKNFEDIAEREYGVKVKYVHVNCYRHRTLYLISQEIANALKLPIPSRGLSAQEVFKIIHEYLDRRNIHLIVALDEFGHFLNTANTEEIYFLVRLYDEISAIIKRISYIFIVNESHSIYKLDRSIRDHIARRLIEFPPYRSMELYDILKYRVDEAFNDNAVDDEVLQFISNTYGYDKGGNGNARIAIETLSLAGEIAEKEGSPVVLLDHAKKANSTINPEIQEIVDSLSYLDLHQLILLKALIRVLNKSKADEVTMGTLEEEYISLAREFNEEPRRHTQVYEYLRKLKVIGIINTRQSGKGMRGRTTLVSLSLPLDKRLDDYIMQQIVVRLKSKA

T3: Orc1-2 wH (Saccharolobus islandicus REY15A, UniProt F0NF18 1-413, R353A;R354A;R381A;R383A)
T3 sequence: T2 sequence with R353A, R354A, R381A, R383A

T4: Orc1-2 ΔN (Saccharolobus islandicus REY15A, UniProt F0NF18 299-413)
T4 sequence: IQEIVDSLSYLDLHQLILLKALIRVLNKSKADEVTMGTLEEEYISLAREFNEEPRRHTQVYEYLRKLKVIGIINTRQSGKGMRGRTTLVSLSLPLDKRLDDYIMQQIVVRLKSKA

T5: Orc1-2 WB (Saccharolobus islandicus REY15A, UniProt F0NF18 1-413, E154A)
T5 sequence: T2 sequence with E154A

B1: PupsE (dsDNA)
DNA 1: CTATAAAGGAAGTTTTAAGTAATTTCGGTATTGTGTGAGTATATTT
DNA 2: AAATATACTCACACAATACCGAAATTACTTAAAACTTCCTTTATAG
B2: Porc1-2 (dsDNA)
DNA 1: TTTGAGAAAGAATCAAGAAAAGTTTCGGACTACTCTCTTAGATAAA
DNA 2: TTTATCTAAGAGAGTAGTCCGAAACTTTTCTTGATTCTTTCTCAAA

Experiments:
Conditions in all cases: protein: recombinant; tags: His; label: 5'-32P; blunt
Orc1-2 ΔC = molecular target: T1, Orc1-2 ΔC; assay: EMSA; EMSA: 20 mM HEPES pH 7.6, 10 mM (NH4)2SO4, 1 mM DTT, 0.2% Tween-20, 30 mM KCl, 40 °C 20 min, 2 nM probe; 8% native PAGE in 40 mM Tris, 20 mM boric acid
Orc1-2 WT [1] = molecular target: T2, Orc1-2 WT; assay: as above
Orc1-2 wH = molecular target: T3, Orc1-2 wH; assay: as above
Orc1-2 ΔN = molecular target: T4, Orc1-2 ΔN; assay: EMSA; large complexes, distributive; two distinct complexes at lowest protein concentration; EMSA: 20 mM HEPES pH 7.6, 10 mM (NH4)2SO4, 1 mM DTT, 0.2% Tween-20, 30 mM KCl, 40 °C 20 min, 2 nM probe; 8% native PAGE in 40 mM Tris, 20 mM boric acid
Orc1-2 WB = molecular target: T5, Orc1-2 WB; assay: EMSA; similar or stronger than WT; EMSA: 20 mM HEPES pH 7.6, 10 mM (NH4)2SO4, 1 mM DTT, 0.2% Tween-20, 30 mM KCl, 40 °C 20 min, 2 nM probe; 8% native PAGE in 40 mM Tris, 20 mM boric acid
Orc1-2 WT [2] = molecular target: T2, Orc1-2 WT; assay: EMSA; 25 nM protein, unlabeled specific competitor; affinity very similar to PupsE; EMSA: 20 mM HEPES pH 7.6, 10 mM (NH4)2SO4, 1 mM DTT, 0.2% Tween-20, 30 mM KCl, 40 °C 20 min, 2 nM probe; 8% native PAGE in 40 mM Tris, 20 mM boric acid

Binder | binding result (Orc1-2 ΔC) | binding result (Orc1-2 WT [1]) | binding result (Orc1-2 wH) | binding result (Orc1-2 ΔN) | binding result (Orc1-2 WB) | binding result (Orc1-2 WT [2])
B1 | no binding | binds | no binding | binds | binds | –
B2 | – | – | – | – | – | binds
